Target: GluA2 subunit of native AMPA receptors (nAMPAR) from rat brain (rat (endogenous in rat brain), UniProt P19491)
Assay: cryo-EM structure

Chain of GluA2 subunit of native AMPA receptors (nAMPAR) from rat brain (P19491 22-883): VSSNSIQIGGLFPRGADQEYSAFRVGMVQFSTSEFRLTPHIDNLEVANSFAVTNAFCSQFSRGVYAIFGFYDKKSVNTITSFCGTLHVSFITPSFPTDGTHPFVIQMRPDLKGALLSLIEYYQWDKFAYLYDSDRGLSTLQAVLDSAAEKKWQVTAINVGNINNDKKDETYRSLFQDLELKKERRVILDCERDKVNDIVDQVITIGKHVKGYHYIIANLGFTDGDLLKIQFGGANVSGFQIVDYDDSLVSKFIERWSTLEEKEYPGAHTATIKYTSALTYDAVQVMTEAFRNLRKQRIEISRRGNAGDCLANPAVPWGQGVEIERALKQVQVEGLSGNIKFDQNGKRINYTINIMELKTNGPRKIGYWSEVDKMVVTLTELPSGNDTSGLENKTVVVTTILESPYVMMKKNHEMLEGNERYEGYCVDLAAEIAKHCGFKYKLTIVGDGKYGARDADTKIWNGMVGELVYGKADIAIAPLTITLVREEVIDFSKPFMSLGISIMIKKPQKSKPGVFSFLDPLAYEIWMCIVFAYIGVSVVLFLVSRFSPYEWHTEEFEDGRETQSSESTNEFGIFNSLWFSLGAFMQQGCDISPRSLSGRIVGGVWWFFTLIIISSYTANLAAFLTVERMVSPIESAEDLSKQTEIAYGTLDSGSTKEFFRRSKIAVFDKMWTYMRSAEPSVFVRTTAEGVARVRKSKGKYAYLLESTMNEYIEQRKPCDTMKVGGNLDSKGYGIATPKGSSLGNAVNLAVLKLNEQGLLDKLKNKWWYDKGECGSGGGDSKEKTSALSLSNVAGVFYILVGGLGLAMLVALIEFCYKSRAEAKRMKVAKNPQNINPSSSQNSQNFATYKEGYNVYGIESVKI

binding result: binds
B1: 15F1 Fab, anti-GluA2 (Fab, V domains shown)
VH: QAQLKESGPGLVAPSQSLSITCTVSGFSLTNYGVHWVRQPPGKGLEWLGVIWAGGSTNYNSALMSRVSISKDNSKSQVFLKMNSLQTDDTVMYYCAREDYDYDWHFDVWGAGTTVTVSS
VL: EIQMTQTTSSLSASLGDRVTISCRASQDISNYLSWYQQKPDGTVKLLIYYTSRLHSGVPSRFSGSGSGIDYSLTINNLEQEDFATYFCQQGNTLPLTFGAGTKLELK

Reference: article PMC6701862 (Science (New York, N.Y.), 2019)
